In PMC9596850, “Tonsillar Microbiome‐Derived Lantibiotics Induce Structural Changes of IL‐6 and IL‐21 Receptors and Modulate Host Immunity” (Advanced Science, 2022):

Experiments:
Conditions in all cases: both partners purified
murine IL-21 = murine IL-21 (mouse, UniProt Q9ES17 18-146); experiment: SPR; Biacore 8K; receptor immobilised on a CM5 chip by amine coupling, 25 °C, PBS-P running buffer, analytes with 5% DMSO; steady state affinity model
[1] = biological target: T1, murine IL-6 receptor subunit alpha (mouse, UniProt P22272 20-364); experiment: as above
T1 construct: also called mIL-6Rα; IL-6Rα; source: bought: abcam
T1 sequence (looked up): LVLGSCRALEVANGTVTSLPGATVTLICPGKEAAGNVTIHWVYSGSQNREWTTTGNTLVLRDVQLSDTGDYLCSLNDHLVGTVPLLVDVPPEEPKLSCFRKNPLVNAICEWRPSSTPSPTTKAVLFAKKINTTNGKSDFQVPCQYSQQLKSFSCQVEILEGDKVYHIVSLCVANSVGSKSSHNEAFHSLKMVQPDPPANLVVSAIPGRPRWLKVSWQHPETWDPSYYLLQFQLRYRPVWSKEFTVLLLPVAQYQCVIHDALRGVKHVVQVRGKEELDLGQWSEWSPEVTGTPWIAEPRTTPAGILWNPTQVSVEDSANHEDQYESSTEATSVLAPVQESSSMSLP

[2] = biological target: T2, murine IL-6 receptor subunit alpha (mouse, UniProt P22272 20-364); experiment: SPR; Biacore 8K; murine IL-6Rα or IL-21R (20 nM) immobilised on a CM5 chip by amine coupling, 25 °C, PBS-P running buffer; analytes with 5% DMSO injected serially (salivaricin B and mutants 12.5-800 µM; mIL-6 0.003125-0.1 µM; mIL-21 0.625-5 nM); KD of salivaricins from a steady-state affinity model
T2 construct: also called IL-6Rα; mIL-6R; source: bought: abcam
T2 sequence (looked up): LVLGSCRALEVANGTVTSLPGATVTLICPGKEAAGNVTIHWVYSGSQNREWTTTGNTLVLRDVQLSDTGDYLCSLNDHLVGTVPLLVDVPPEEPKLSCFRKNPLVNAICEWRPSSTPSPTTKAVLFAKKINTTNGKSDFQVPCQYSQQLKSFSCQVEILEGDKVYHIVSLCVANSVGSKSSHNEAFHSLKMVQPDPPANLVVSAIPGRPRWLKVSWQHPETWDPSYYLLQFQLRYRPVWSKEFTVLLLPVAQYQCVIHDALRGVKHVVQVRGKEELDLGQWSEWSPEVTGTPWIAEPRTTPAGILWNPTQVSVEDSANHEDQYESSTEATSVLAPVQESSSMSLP

murine IL-21 receptor = biological target: T3, murine IL-21 receptor (mouse, UniProt Q9JHX3 20-237); experiment: as above
T3 construct: also called mIL-21R; Mouse IL-21R; source: bought: Sino Biological

[3] = biological target: T1, murine IL-6 receptor subunit alpha; experiment: SPR; Biacore 8K; receptor immobilised on a CM5 chip by amine coupling, 25 °C, PBS-P running buffer, analyte with 5% DMSO; 1:1 binding model
[4] = biological target: T4, recombinant mouse IL-6 receptor subunit alpha protein with the Fc region of mouse IgG2a (mouse, UniProt P22272 20-364); experiment: SPR; Biacore 8K; receptor immobilised on CM5 chip by amine coupling, 25 °C, PBS-P running buffer; analytes with 5% DMSO injected serially; steady-state affinity model
T4 construct: also called Fc-IL-6Rα; IL-6Rα; source: bought: abcam
T4 sequence (looked up): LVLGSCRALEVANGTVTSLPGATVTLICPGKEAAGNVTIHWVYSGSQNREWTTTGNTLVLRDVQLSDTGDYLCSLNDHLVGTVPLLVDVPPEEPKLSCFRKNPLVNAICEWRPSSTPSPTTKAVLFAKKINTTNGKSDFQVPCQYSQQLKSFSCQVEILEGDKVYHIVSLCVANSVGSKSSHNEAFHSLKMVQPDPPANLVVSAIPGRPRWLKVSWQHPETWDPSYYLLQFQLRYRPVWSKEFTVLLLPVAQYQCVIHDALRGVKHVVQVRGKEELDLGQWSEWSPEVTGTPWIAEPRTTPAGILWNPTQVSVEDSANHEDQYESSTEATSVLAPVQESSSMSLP

[5] = biological target: T5, mouse IL-21 receptor protein with the Fc region of human IgG1 (mouse, UniProt Q9JHX3 20-237); experiment: as above
T5 construct: also called IL-21R-Fc; murine IL-21R; source: bought: Sino Biological

B1: murine IL-21 receptor (receptor)
chain: not shown
notes: also called mIL-21R; source: bought: Sino Biological
Work on B1 yielded a Kd (murine IL-21) of 0.0349 nM.

B2: salivaricin A2 (peptide)
peptide: KRGTGWFATITDDCPNSVFVCC
notes: salivaricin A2, lantibiotic peptide commonly synthesized by Streptococcus salivarius; also called SalA2; source: synthetic peptide (solid-phase, RoYo Biotech), HPLC purified, purity more than 96%
For B2, the Kd [1] was 51.4 µM.

B3: salivaricin B (peptide)
peptide: GGGVIQTISHECRMNSWQFLFTCCS
notes: salivaricin B, lantibiotic peptide commonly synthesized by Streptococcus salivarius; chemically synthesized; Molecular weight on the synthesis report is 2805.23; also called SalB; source: synthetic peptide (solid-phase synthesis, RoYo Biotech; HPLC purified, purity more than 96%)
B3 showed a Kd [2] of 354 µM and a Kd (murine IL-21 receptor) of 12.6 µM.

B4: murine IL-6 (ligand, mouse, UniProt P08505 25-211, looked up)
chain: FPTSQVRRGDFTEDTTPNRPVYTTSQVGGLITHVLWEIVEMRKELCNGNSDCMNNDDALAENNLKLPEIQRNDGCYQTGYNQEICLLKISSGLLEYHSYLEYMKNNLKDNKKDKARVLQRDTETLIHIFNQEVKDLHKIVLPTPISNALLTDKLESQKEWLRTKTIQFILKSLEEFLKVTLRSTRQT
notes: also called mIL-6
For B4, the Kd [3] was 13.7 nM.

B5: salivaricin B (peptide)
peptide: GGGVIQTISHECRMNSWQFLFTCCS
notes: salivaricin B, lantibiotic peptide commonly synthesized by S. salivarius; Chemically synthesized; also called SalB; source: synthetic peptide (solid-phase, RoYo Biotech; HPLC, purity more than 96%)
Work on B5 yielded a Kd [4] of 160 µM and a Kd [5] of 10.1 µM.
